From patent publication US20260184777A1 (BEIJING SUNGEN BIOMEDICAL TECHNOLOGY, published 2026)
Where a chain is given by its changes, count along the chain named.

T1: human S100A8/A9 heterodimeric antigen, His-tagged (hS100A8/A9-His) (human, UniProt P05109 1-93; P06702 1-114)
T1 sequence 1: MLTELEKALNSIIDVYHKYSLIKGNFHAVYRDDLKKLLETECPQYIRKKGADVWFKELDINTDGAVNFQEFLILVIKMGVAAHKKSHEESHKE
T1 sequence 2: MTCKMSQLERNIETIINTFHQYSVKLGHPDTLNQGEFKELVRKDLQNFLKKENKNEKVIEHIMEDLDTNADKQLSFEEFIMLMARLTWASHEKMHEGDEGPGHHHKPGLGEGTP

B1: CM-50 (antibody, human IgG4 S228P, lambda, V domains shown)
VH: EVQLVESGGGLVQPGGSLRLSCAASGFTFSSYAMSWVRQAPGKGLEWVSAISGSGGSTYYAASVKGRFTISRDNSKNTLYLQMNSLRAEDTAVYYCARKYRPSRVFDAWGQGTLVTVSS
VL: SYELTQPPSVSVAPGQTARITCSGDALGDKYASWYQQKPGQAPVLVIYEDAKRPSGIPERFSGSNSGNTATLTISGTQAEDEADYYCQSNDADAVWVFGGGTKLTVLG
B2: CM-48 (antibody, human IgG4 S228P, lambda, V domains shown)
VH: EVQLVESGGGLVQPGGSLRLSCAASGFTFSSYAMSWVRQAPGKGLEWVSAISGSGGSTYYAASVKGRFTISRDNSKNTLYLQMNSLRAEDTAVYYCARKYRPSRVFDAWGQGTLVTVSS
VL: B1 VL with Y31F, A51S, A92I, A94S
B3: CM-83 (antibody, human IgG4 S228P, lambda, V domains shown)
VH: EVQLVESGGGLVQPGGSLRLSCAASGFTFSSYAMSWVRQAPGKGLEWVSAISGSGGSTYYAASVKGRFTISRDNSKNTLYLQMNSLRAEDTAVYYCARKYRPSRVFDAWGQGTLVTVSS
VL: B1 VL with S55D
B4: CM-74 (antibody, human IgG4 S228P, lambda, V domains shown)
VH: EVQLVESGGGLVQPGGSLRLSCAASGFTFSSYAMSWVRQAPGKGLEWVSAISGSGGSTWYAASVKGRFTISRDNSKNTLYLQMNSLRAEDTAVYYCARKYRPSRVYDAWGQGTLVTVSS
VL: B1 VL with K52R, A92I
B5: CM-69 (antibody, human IgG4 S228P, lambda, V domains shown)
VH: B4 VH with V105A, Y106F
VL: B1 VL with E49Q
B6: CM-52 (antibody, human IgG4 S228P, lambda, V domains shown)
VH: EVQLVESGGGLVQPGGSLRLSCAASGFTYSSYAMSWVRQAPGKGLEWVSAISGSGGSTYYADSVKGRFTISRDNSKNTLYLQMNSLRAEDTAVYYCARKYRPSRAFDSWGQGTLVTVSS
VL: B1 VL with A92I, A94S
B7: CM-70 (antibody, human IgG4 S228P, lambda, V domains shown)
VH: B4 VH with W59Y, A61H, V105A, Y106F
VL: B1 VL with Y31F
B8: CM-77 (antibody, human IgG4 S228P, lambda, V domains shown)
VH: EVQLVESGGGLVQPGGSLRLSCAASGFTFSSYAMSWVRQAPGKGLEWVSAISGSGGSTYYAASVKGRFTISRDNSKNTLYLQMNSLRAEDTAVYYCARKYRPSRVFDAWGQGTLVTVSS
VL: B1 VL with K52N
B9: CM-81 (antibody, human IgG4 S228P, lambda, V domains shown)
VH: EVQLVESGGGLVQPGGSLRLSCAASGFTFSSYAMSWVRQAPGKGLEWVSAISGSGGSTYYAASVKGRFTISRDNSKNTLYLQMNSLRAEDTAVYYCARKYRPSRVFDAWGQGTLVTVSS
VL: B1 VL with P54D
B10: CM-60 (antibody, human IgG4 S228P, lambda, V domains shown)
VH: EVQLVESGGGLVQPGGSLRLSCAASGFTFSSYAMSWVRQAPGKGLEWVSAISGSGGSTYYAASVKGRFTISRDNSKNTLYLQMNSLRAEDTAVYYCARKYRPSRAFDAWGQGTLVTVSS
VL: B1 VL with A92I
B11: CM-79 (antibody, human IgG4 S228P, lambda, V domains shown)
VH: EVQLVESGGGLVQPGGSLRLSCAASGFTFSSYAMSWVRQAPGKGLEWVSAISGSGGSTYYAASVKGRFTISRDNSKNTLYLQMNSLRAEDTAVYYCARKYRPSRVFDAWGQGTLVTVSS
VL: B1 VL with P54N
B12: CM-56 (antibody, human IgG4 S228P, lambda, V domains shown)
VH: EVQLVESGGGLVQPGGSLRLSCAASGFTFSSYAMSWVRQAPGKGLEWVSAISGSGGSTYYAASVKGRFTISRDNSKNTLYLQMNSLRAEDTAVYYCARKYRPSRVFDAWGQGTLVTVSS
VL: B1 VL with A92I
B13: CM-43 (antibody, human IgG4 S228P, lambda, V domains shown)
VH: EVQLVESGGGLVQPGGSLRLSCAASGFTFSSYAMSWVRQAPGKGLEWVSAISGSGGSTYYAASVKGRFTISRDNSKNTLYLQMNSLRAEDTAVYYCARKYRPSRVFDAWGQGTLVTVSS
VL: B1 VL with A94S
B14: CM-78 (antibody, human IgG4 S228P, lambda, V domains shown)
VH: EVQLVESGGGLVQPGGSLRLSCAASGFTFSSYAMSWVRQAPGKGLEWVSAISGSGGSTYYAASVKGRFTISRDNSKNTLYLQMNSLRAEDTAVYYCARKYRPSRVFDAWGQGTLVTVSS
VL: B1 VL with K52H
B15: CM-62 (antibody, human IgG4 S228P, lambda, V domains shown)
VH: B4 VH with A33V, W59Y, Y106F
VL: B1 VL with K52R
B16: CM-42 (antibody, human IgG4 S228P, lambda, V domains shown)
VH: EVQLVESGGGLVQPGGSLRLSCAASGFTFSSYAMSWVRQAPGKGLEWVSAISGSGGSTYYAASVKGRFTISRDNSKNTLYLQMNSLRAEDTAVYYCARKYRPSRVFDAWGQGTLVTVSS
VL: B1 VL with A51S, A92I, A94S
B17: CM-71 (antibody, human IgG4 S228P, lambda, V domains shown)
VH: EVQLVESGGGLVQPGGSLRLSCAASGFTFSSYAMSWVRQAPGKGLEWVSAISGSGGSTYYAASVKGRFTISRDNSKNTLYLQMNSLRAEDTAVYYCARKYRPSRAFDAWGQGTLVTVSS
VL: B1 VL with Y31F, A92I
B18: CM-53 (antibody, human IgG4 S228P, lambda, V domains shown)
VH: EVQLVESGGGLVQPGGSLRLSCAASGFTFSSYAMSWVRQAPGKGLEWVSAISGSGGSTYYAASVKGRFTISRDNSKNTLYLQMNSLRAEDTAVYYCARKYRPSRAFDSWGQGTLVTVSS
VL: B1 VL
B19: CM-59 (antibody, human IgG4 S228P, lambda, V domains shown)
VH: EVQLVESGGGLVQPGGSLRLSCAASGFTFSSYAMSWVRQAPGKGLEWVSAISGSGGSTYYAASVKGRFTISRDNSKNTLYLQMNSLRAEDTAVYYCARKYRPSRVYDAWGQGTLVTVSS
VL: B1 VL with A92I
B20: CM-49 (antibody, human IgG4 S228P, lambda, V domains shown)
VH: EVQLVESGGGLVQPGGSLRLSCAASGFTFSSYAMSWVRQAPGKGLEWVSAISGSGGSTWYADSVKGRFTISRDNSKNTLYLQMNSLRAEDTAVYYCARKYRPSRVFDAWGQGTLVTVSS
VL: B1 VL with A92I, A94S
B21: CM-75 (antibody, human IgG4 S228P, lambda, V domains shown)
VH: B4 VH with W59Y, A61V, V105A, Y106F
VL: B1 VL with Y31F, E49Q
B22: CM-41 (antibody, human IgG4 S228P, lambda, V domains shown)
VH: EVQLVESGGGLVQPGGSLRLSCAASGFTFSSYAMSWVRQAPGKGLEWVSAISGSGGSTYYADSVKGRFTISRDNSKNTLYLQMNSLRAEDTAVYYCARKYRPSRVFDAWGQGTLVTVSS
VL: B1 VL with A51S
B23: CM-54 (antibody, human IgG4 S228P, lambda, V domains shown)
VH: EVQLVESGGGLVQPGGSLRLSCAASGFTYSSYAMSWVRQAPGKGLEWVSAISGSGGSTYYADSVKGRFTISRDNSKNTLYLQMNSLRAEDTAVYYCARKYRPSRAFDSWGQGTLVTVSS
VL: B1 VL with Y31F, A51S, A92I, A94S
B24: CM-76 (antibody, human IgG4 S228P, lambda, V domains shown)
VH: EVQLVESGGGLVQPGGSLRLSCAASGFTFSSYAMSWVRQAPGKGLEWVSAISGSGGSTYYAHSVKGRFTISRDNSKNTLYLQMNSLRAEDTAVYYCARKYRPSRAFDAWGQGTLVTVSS
VL: B1 VL with Y31F, A92V
B25: CM-64 (antibody, human IgG4 S228P, lambda, V domains shown)
VH: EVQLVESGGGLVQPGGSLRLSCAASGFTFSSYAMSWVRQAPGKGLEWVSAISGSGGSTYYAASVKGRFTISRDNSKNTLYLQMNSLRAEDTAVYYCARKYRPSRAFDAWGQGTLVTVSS
VL: B1 VL with Y31F
B26: CM-57 (antibody, human IgG4 S228P, lambda, V domains shown)
VH: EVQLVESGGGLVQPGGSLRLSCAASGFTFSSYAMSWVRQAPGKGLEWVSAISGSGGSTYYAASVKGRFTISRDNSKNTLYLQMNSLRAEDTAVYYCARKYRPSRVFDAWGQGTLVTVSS
VL: B1 VL with Y31F, A92I
B27: CM-47 (antibody, human IgG4 S228P, lambda, V domains shown)
VH: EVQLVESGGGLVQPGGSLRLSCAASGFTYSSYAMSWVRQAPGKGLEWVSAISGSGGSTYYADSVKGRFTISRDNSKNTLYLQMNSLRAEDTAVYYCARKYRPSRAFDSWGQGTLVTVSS
VL: B1 VL with A51S, A92I, A94S
B28: CM-46 (antibody, human IgG4 S228P, lambda, V domains shown)
VH: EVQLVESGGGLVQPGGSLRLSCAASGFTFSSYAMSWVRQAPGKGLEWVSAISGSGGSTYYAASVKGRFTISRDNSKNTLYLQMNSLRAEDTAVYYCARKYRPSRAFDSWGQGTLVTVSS
VL: B1 VL with Y31F, A51S, A94S
B29: CM-80 (antibody, human IgG4 S228P, lambda, V domains shown)
VH: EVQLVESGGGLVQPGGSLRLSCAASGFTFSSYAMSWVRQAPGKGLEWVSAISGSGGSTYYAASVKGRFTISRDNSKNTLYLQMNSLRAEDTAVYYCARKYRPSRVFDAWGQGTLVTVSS
VL: B1 VL with P54Q
B30: CM-65 (antibody, human IgG4 S228P, lambda, V domains shown)
VH: B4 VH with F29Y, W59Y, Y106F
VL: B1 VL with E49Q, A92I
B31: CM-66 (antibody, human IgG4 S228P, lambda, V domains shown)
VH: B4 VH with F29Y, W59Y, V105A, Y106F
VL: B1 VL with A92I
B32: CM-68 (antibody, human IgG4 S228P, lambda, V domains shown)
VH: B4 VH with M34I, W59Y, V105A, Y106F
VL: B1 VL with A92L
B33: CM-73 (antibody, human IgG4 S228P, lambda, V domains shown)
VH: B4 VH with F29Y, W59Y, V105A, Y106F
VL: B1 VL with E49Q, A92I
B34: CM-40 (antibody, human IgG4 S228P, lambda, V domains shown)
VH: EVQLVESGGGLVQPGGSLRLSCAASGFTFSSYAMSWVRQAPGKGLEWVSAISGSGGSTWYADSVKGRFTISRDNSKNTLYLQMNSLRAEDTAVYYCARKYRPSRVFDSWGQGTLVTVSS
VL: B1 VL with A51S, A92V, A94S
B35: CM-67 (antibody, human IgG4 S228P, lambda, V domains shown)
VH: B4 VH with Y32H, W59Y, Y100F, Y106F
VL: B1 VL with K52R
B36: CM-44 (antibody, human IgG4 S228P, lambda, V domains shown)
VH: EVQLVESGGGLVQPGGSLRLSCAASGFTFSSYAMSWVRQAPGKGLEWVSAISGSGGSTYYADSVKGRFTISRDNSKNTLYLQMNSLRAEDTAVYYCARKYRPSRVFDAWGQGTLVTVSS
VL: B1 VL
B37: CM-58 (antibody, human IgG4 S228P, lambda, V domains shown)
VH: B4 VH with Y106F
VL: B1 VL with A92I
B38: CM-72 (antibody, human IgG4 S228P, lambda, V domains shown)
VH: B4 VH with F29Y, W59Y, V105A, Y106F
VL: B1 VL with Y31F, A92I
B39: CM-61 (antibody, human IgG4 S228P, lambda, V domains shown)
VH: B4 VH with F29Y, W59Y, Y106F
VL: B1 VL with E49Q
B40: CM-55 (antibody, human IgG4 S228P, lambda, V domains shown)
VH: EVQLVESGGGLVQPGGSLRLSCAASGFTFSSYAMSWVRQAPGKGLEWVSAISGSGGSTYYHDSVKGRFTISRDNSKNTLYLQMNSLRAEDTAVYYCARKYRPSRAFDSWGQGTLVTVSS
VL: B1 VL with Y31F, A51S
B41: CM-45 (antibody, human IgG4 S228P, lambda, V domains shown)
VH: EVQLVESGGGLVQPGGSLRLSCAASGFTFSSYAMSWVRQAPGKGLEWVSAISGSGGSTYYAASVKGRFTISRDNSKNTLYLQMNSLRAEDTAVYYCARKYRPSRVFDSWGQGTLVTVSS
VL: B1 VL
B42: CM-82 (antibody, human IgG4 S228P, lambda, V domains shown)
VH: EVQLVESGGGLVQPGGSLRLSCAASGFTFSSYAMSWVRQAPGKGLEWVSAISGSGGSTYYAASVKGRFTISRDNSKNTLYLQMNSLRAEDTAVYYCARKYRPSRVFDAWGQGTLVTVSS
VL: B1 VL with S55W
B43: CM-63 (antibody, human IgG4 S228P, lambda, V domains shown)
VH: B4 VH with Y106F
VL: B1 VL with A92V
B44: CM-84 (antibody, human IgG4 S228P, lambda, V domains shown)
VH: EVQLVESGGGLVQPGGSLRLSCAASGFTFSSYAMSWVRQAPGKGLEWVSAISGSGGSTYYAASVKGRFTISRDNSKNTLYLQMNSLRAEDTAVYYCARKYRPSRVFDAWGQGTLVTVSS
VL: B1 VL with S55D, V95Y

Biological target: T1, human S100A8/A9 heterodimeric antigen, …
Assay: cell-based or functional assay

Binder | Relative IC50 (IC50 relative to CM-1), IL-6 release from hS100A8/A9-activated human PBMCs
B1 | 0.679 relative to CM-1
B2 | 1.58 relative to CM-1
B3 | 2.48 relative to CM-1
B4 | 1.52 relative to CM-1
B5 | 1.93 relative to CM-1
B6 | 1.19 relative to CM-1
B7 | 1.95 relative to CM-1
B8 | 0.633 relative to CM-1
B9 | 2.51 relative to CM-1
B10 | 0.936 relative to CM-1
B11 | 0.695 relative to CM-1
B12 | 1.12 relative to CM-1
B13 | 1.99 relative to CM-1
B14 | 0.99 relative to CM-1
B15 | 1.58 relative to CM-1
B16 | 0.866 relative to CM-1
B17 | 1.23 relative to CM-1
B18 | 0.357 relative to CM-1
B19 | 1.04 relative to CM-1
B20 | 0.617 relative to CM-1
B21 | 2.85 relative to CM-1
B22 | 1.11 relative to CM-1

Binder | Relative IC50 (IC50 relative to CM-1), IL-6 release from hS100A8/A9-activated human PBMCs
B23 | 0.997 relative to CM-1
B24 | 1.55 relative to CM-1
B25 | 0.5 relative to CM-1
B26 | 1.16 relative to CM-1
B27 | 2.12 relative to CM-1
B28 | 1.51 relative to CM-1
B29 | 0.943 relative to CM-1
B30 | 0.618 relative to CM-1
B31 | 0.694 relative to CM-1
B32 | 1.78 relative to CM-1
B33 | 0.703 relative to CM-1
B34 | 2.18 relative to CM-1
B35 | 0.548 relative to CM-1
B36 | 1.44 relative to CM-1
B37 | 1.52 relative to CM-1
B38 | 0.639 relative to CM-1
B39 | 0.923 relative to CM-1
B40 | 1.67 relative to CM-1
B41 | 2.09 relative to CM-1
B42 | 0.156 relative to CM-1
B43 | 1.33 relative to CM-1
B44 | 0.393 relative to CM-1
